These results are taken from patent US20180072811A1 (GENERAL HOSPITAL, published 2018).

The target in this assay is T1, chondroitin sulfate proteoglycan 4 (CSPG4), human (human, UniProt Q6UVK1 30-2322).
T1 construct: whole, on cells; Cell surface proteoglycan; also called MCSP; NG2
Briefly: reactivity of single scFv clones with CSPG4+ SK-MEL-28 melanoma cells and CSPG4- LG2 B lymphoid cells.

T1 sequence (Q6UVK1 30-2322): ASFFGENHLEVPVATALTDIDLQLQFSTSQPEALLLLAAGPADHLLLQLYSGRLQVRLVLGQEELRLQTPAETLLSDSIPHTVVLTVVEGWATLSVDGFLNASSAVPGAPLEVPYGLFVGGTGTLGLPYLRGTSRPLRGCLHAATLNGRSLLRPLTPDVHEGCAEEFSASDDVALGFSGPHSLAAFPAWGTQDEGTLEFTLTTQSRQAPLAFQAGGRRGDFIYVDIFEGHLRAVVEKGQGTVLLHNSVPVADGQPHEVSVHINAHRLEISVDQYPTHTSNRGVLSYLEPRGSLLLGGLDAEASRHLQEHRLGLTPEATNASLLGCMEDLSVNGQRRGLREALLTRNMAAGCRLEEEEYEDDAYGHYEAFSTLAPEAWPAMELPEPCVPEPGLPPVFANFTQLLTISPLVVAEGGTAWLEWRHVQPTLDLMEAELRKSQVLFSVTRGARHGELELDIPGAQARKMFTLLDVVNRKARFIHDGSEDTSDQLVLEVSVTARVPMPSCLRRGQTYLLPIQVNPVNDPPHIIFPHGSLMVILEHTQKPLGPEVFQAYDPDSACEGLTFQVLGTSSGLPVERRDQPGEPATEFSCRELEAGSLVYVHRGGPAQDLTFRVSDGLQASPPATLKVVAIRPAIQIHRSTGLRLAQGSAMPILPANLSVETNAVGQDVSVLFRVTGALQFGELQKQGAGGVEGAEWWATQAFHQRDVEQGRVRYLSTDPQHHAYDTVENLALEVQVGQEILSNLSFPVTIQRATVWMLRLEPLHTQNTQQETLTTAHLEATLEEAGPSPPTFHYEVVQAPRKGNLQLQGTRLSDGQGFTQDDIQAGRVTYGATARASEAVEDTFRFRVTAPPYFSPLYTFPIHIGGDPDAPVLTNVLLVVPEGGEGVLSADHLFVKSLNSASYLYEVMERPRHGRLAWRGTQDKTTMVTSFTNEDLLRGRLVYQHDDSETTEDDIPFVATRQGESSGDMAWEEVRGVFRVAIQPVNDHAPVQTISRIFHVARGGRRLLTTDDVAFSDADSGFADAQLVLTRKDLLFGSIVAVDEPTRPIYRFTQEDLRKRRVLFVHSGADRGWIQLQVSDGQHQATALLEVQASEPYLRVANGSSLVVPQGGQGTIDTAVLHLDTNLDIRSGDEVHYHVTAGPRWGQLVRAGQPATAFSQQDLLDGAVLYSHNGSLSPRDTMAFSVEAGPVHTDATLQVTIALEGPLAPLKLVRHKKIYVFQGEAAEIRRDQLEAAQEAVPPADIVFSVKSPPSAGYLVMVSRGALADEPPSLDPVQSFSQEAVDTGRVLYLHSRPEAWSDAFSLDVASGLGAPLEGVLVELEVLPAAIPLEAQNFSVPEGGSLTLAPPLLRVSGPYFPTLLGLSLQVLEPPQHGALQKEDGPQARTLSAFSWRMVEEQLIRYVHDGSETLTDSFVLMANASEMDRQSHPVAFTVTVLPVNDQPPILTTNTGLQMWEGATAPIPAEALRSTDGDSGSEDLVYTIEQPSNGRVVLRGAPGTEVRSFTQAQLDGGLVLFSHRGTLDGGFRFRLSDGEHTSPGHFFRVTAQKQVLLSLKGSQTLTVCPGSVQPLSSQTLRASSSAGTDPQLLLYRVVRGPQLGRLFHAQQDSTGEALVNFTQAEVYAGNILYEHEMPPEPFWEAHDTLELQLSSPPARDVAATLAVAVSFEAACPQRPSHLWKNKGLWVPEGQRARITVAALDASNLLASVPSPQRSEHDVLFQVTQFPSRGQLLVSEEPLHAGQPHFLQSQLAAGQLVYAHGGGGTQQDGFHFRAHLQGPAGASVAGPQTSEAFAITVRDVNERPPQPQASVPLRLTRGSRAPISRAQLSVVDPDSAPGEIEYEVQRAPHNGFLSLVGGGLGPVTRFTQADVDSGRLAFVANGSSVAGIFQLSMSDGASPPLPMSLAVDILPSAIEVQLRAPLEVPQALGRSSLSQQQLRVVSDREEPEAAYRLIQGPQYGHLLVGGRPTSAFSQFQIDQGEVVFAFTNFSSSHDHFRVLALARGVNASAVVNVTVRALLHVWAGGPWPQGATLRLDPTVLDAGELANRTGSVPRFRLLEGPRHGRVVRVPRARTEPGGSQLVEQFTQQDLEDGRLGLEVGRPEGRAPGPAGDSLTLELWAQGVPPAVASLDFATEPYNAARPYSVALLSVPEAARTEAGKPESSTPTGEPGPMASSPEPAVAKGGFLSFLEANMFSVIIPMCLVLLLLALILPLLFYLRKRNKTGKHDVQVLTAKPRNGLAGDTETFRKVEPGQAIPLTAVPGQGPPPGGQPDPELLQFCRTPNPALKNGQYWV

B1: scFv SK5 (scFv)
scFv: MAEVQLVESGGGVVRPGGSLRLSCAASGFTFDDYGMSWVRQAPGKGLEWVSGINWNGGSTGYADSVKGRFTISRDNAKNSLYLQMNSLRAEDTAVYYCARGVLSRYFDYWGQGTLVTVSSGGGGSGGGGSGGGGSEIELTQSPATLSLSPGERATLSCRASQSVSSYLAWYQQKPGQAPRLLIYDASNRATGIPARFSGSGSGTDFTLTISSLEPEDFAVYYCQQRSNWPPAFGGGTKVEIKRAA
notes: Fully human scFv from a semi-synthetic phage display library; Tested as soluble scFv in supernatant with a c-Myc tag, detected through mAb 9E10; also called CSPG4-specific human scFv SK5
In the case of B1, the binding result was “binds”.
